Data published in patent US20220185898A1 (Alector, published 2022).
Positions count from the first letter of the chain named.

B1: S-2-1 (antibody, V domains shown)
VH: QVQLVQSGAEVKKPGASVKVSCKASGYTFGAYYMHWVRQAPGQGLEWMGWINPNSGFTRYAQKFQGRVTMTRDTSISTAYMELSRLRSDDTAVYYCARGKRSSGWYEGYGMDVWGQGTTVTVSS
VL: DIQMTQSPSSLSASVGDRVTITCRASQSISSYLNWYQQKPGKAPKLLIYAASSLQSGVPSRFSGSGSGTDFTLTISSLQPEDFATYYCQQSDVSPITFGGGTKVEIK
notes: IgG
B2: S-2-2 (antibody, V domains shown)
VH: B1 VH with G30V, F57A
VL: B1 VL
notes: IgG
B3: S-2-11 (antibody, V domains shown)
VH: B1 VH with G30L, N54S, S55W, F57S, R59S
VL: B1 VL
notes: IgG
B4: S-15-3 (antibody, V domains shown)
VH: QVQLVQSGAEVKKPGASVKVSCKASGYTFTSTYMSWVRQAPGQGLEWMGIINPYGGSTSYAQKFQGRVTMTRDTSTSTVYMELSSLRSEDTAVYYCARDPSGIAAAGPASRYYYGMDVWGQGTTVTVSS
VL: EIVMTQSPATLSVSPGERATLSCRASQSVSSNLAWYQQKPGQAPRLLIYGASTRATGIPARFSGSGSGTEFTLTISSLQSEDFAVYYCQQARLGPWTFGGGTKVEIK
notes: IgG
B5: S-15-6 (antibody, V domains shown)
VH: B4 VH with T32R, Y54V
VL: B4 VL
notes: IgG
B6: S-15-14 (antibody, V domains shown)
VH: B4 VH with T32Q
VL: B4 VL
notes: IgG
B7: S-22-3 (antibody, V domains shown)
VH: QVQLVQSGAEVKKPGSSVKVSCKASGGTFRSYAISWVRQAPGQGLEWMGGIIPGFGTAWYAQKFQGRVTITADESTSTAYMELSSLRSEDTAVYYCARQGRKTGYYYYYGMDVWGQGTTVTVSS
VL: DIQMTQSPSTLSASVGDRVTITCRASQSISSWLAWYQQKPGKAPKLLIYKASSLESGVPSRFSGSGSGTEFTLTISSLQPDDFATYYCQQADGHITFGGGTKVEIK
notes: IgG
B8: S-22-7 (antibody, V domains shown)
VH: B7 VH with R30S, T57R, W59N
VL: B7 VL
notes: IgG
B9: S-22-9 (antibody, V domains shown)
VH: B7 VH with S31N, G54I, F55G, T57W, W59N
VL: B7 VL
notes: IgG
B10: S-82-3 (antibody, V domains shown)
VH: QLQLQESGPGLVKPSETLSLTCTVSGGSISSSDYYWGWIRQPPGKGLEWIGQIYYKGSTYYNPSLKSRVTISVDTSKNQFSLKLSSVTAADTAVYYCARGVGSGYSYGYRYFDYWGQGTLVTVSS
VL: EIVLTQSPGTLSLSPGERATLSCRASQSVSSSYLAWYQQKPGQAPRLLIYGASSRATGIPDRFSGSGSGTDFTLTISRLEPEDFAVYYCQQSHVSPWTFGGGTKVEIK
notes: IgG
B11: S-82-5 (antibody, V domains shown)
VH: B10 VH with S30K, D33E, Q52S, Y55R, K56A
VL: B10 VL
notes: IgG
B12: S-2-11 Fab (Fab, V domains shown)
VH: B1 VH with G30L, N54S, S55W, F57S, R59S
VL: B1 VL
notes: Fab by papain digestion
B13: S-2-2 Fab (Fab, V domains shown)
VH: B1 VH with G30V, F57A
VL: B1 VL
notes: Fab by papain digestion
B14: S-15-6 Fab (Fab, V domains shown)
VH: B4 VH with T32R, Y54V
VL: B4 VL
notes: Fab by papain digestion
B15: S-18 (antibody, V domains shown)
VH: QVQLVQSGAEVKKPGSSVKVSCKASGGTFSSYAISWVRQAPGQGLEWMGSIIPIFGTANYAQKFQGRVTITADESTSTAYMELSSLRSEDTAVYYCARDKHGRRGYYYYMDVWGKGTTVTVSS
VL: EIVLTQSPATLSLSPGERATLSCRASQSVSSYLAWYQQKPGQAPRLLIYDASNRATGIPARFSGSGSGTDFTLTISSLEPEDFAVYYCQQGANAPPRTFGGGTKVEIK
notes: IgG
B16: S-19 (antibody, V domains shown)
VH: QVQLVQSGAEVKKPGSSVKVSCKASGGTFSSYAISWVRQAPGQGLEWMGGIIPIFGTASYAQKFQGRVTITADESTSTAYMELSSLRSEDTAVYYCARESRIPGSGYYYYYGMDVWGQGTTVTVSS
VL: B1 VL with A50S, S91T, V93G, S94K, I96P
notes: IgG
B17: S-21 (antibody, V domains shown)
VH: B7 VH with R30S, G50S, G54I, W59N, Q99E, G100R, K102Y, T103D
VL: B1 VL with S91K, D92A, V93S, S94L, I96F
notes: IgG
B18: S-28 (antibody, V domains shown)
VH: EVQLVESGGGLVKPGGSLRLSCAASGFTFSSYSMNWVRQAPGKGLEWVSSISSSSNYIYYADSVKGRFTISRDNAKNSLYLQMNSLRAEDTAVYYCARGGLDRWGSFDIWGQGTMVTVSS
VL: not shown
notes: IgG
B19: S-29 (antibody, V domains shown)
VH: B18 VH
VL: not shown
notes: IgG
B20: S-48 (antibody, V domains shown)
VH: QVQLVESGGGVVQPGRSLRLSCAASGFTFSSYGMHWVRQAPGKGLEWVAVISYDGSNKYYADSVKGRFTISRDNSKNTLYLQMNSLRAEDTAVYYCARESGDRATLVYYYYYGMDVWGQGTTVTVSS
VL: B4 VL with G50S, A91Y, R92N, L93S, G94W, W96I
notes: IgG
B21: S-82-3 Fab (Fab, V domains shown)
VH: B10 VH
VL: B10 VL
notes: Fab by papain digestion
B22: S-82-5 Fab (Fab, V domains shown)
VH: B10 VH with S30K, D33E, Q52S, Y55R, K56A
VL: B10 VL
notes: Fab by papain digestion

target: T1, mouse Sortilin expressed on 293 / HEK293T cells (mouse, UniProt Q6PHU5 74-825); assay: FACS, HEK293T + msSort
T1 construct: full-length recombinant mouse Sortilin; also called mSort; msSort
Method: (§1) Antibodies were diluted in FACS buffer (PBS+2% FBS+0.01% NaAzide). After incubation on ice for 1 h, cells were washed three times in FACS buffer and incubated with anti-human PE conjugated secondary antibody (BD Biosciences, 1:100 dilution) for 30 min on ice. Then cells were washed twice in 200 ul FACS buffer, and subsequently analyzed on a FACS Canto or iQE FACS screening instrument (Intellicyt Corp).

B1 and B2 are within 1.5-fold of each other in Kd: 2.65 nM for the first, 2.27 nM for the second.

Compared with B3, B4 is 12-fold higher in Kd: 1.54 nM for the first, 17.9 nM for the second.

B5 and B6 are within 1.5-fold of each other in Kd: 18.9 nM for the first, 19.4 nM for the second.

B7 and B8 are within 1.5-fold of each other in Kd: 3.63 nM for the first, 4.78 nM for the second.

Binder B9 has a Kd of 5.12 nM.

B10: no binding (tested: 0.39-50 nM antibody).
B11: no binding (tested: 0.39-50 nM antibody).

target: T2, biotinylated human Sortilin monomer (human, UniProt Q99523 78-755, limits assumed, biotinylated (Sulfo-NHS-biotin)); assay: ForteBio, Fab
T2 construct: monomer cut from the Fc fusion with IdeS; used unbiotinylated in solution in some formats; also called Bt-hSort; b-H Sort
Method: (§2) The affinity of the anti-Sortilin antibodies was determined by measuring their KD by ForteBio and MSD. […] Briefly, ForteBio affinity measurements were performed by loading immunoglobulins (IgGs) on-line onto AHQ sensors. Sensors were equilibrated off-line in assay buffer for 30 min and then monitored on-line for 60 seconds for baseline establishment. For avid binding measurement, sensors with loaded IgGs were exposed to 100 nM antigen (human or mouse Sortilin Fc fusion) for 3 min, afterwards they were transferred to assay buffer for 3 min for off-rate measurement. […] Monovalent binding measurements were obtained by loading human or mouse Sortilin Fc fusion antigens to AHQ sensor and followed by exposure to −100 nM Sortilin antibody Fab. […] Kinetics data were fit using a 1:1 binding model in the data analysis software provided by ForteBio.

With B12 the Kd was 0.261 nM.

target: T3, biotinylated mouse Sortilin monomer (mouse, UniProt Q6PHU5 74-754, limits assumed, biotinylated); assay: ForteBio, Fab
T3 construct: also called Bt-msSort
Method: as §2

Going from B13 to B12, the Kd rises from 2.68 nM to 7.59 nM (2.8-fold). The first binds more tightly here.

Work on B14 yielded a Kd of 0.678 nM.

target: T4, human Sortilin Fc fusion protein (human, UniProt Q99523 78-755); assay: ForteBio, avid;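 note: whole IgG captured on AHQ sensors, then contacted with Sortilin Fc fusion antigen at 100 nM, followed by an off-rate phase in buffer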
T4 construct: whole entry named; also called hSort-Fc
Method: (§3) The affinity for the Sortilin antibodies was determined by measuring their KD by ForteBio. […] Briefly, ForteBio affinity measurements were performed by loading IgGs on-line onto AHQ sensors. Sensors were equilibrated off-line in assay buffer for 30 min and then monitored on-line for 60 seconds for baseline establishment. For avid binding measurement, sensors with loaded IgGs were exposed to 100 nM antigen (human or mouse Sortilin Fc fusion) for 3, afterwards they were transferred to assay buffer for 3 min for off-rate measurement.
(§4) The binding affinity of each anti-Sortilin antibody was determined by measuring their KD by ForteBio or MSD-SET at room temperature. […] Briefly, ForteBio affinity measurements were performed by loading IgGs on-line onto AHQ sensors. Sensors were equilibrated off-line in assay buffer for 30 min and then monitored on-line for 60 seconds for baseline establishment. Sensors with loaded IgGs were exposed to 100 nM antigen for 5 minutes, then transferred to assay buffer for 5 min for off-rate measurement. Kinetics were analyzed using the 1:1 binding model.

Going from B15 to B16, the Kd rises from 0.475 nM to 0.843 nM (1.8-fold). The first binds more tightly here.

First: B17
Second: B18
The Kd of the first is 6.3-fold higher: 1.87 nM for the first, 0.299 nM for the second. The second binds more tightly here.

Going from B19 to B20, the Kd rises from 0.37 nM to 4.96 nM (13-fold).

target: T5, mouse Sortilin Fc fusion protein (mouse; human, UniProt Q6PHU5 74-754); assay: ForteBio, avid;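 note: whole IgG captured on AHQ sensors, then contacted with Sortilin Fc fusion antigen at 100 nM, followed by an off-rate phase in buffer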
T5 construct: whole entry named; also called mSort-Fc
Method: as §3, §4

Going from B15 to B16, the Kd falls from 2.3 nM to 0.733 nM (3.1-fold). The second binds more tightly here.

First: B17
Second: B18
The Kd of the first is 2.2-fold higher: 2.8 nM for the first, 1.25 nM for the second.

B19 and B20 are within 1.5-fold of each other in Kd: 1.37 nM for the first, 1.53 nM for the second.

target: T1, mouse Sortilin expressed on 293 / …; assay: FACS, 293 cells;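 note: antibodies at 10 µg/ml bound to cells for 1 h on ice, detected with PE-labelled anti-human secondary antibody by flow cytometry, reported as mean fluorescence intensity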
Method: (§5) Cells were harvested, plated at 10⁵/ml in a 96 well plate, washed, and incubated in 100 μl PBS containing 10 μg/ml Mab and 2% FBS for 1 hour in ice. Cells were then washed twice and incubated in 100 μl PBS+2% FBS containing 5 μg/ml PE-conjugated anti-human secondary antibody for 30 minutes in ice. Cells were washed twice in cold PBS and data was acquired on a BD FACS Canto. Data analysis and calculation of MFI values was performed with FlowJo (TreeStar) software version 10.0.7.

Compared with B15, B16 is higher in MFI: 21700 for the first, 28200 for the second.

First: B17
Second: B18
The MFI of the first is higher: 22900 for the first, 21600 for the second.

First: B19
Second: B20
The MFI of the first is higher: 21800 for the first, 11900 for the second.

target: T6, human Sortilin expressed on 293 / HEK293T cells (human, UniProt Q99523 78-830); assay: FACS, 293 cells;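 note: antibodies at 10 µg/ml bound to cells for 1 h on ice, detected with PE-labelled anti-human secondary antibody by flow cytometry, reported as mean fluorescence intensity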
T6 construct: full-length recombinant human Sortilin; also called hSort; SORT1
Method: as §5

Compared with B15, B16 is higher in MFI: 9350 for the first, 11700 for the second.

Compared with B17, B18 is lower in MFI: 9380 for the first, 8560 for the second.

Compared with B19, B20 is lower in MFI: 9600 for the first, 8140 for the second.

target: T6, human Sortilin expressed on 293 / …; assay: FACS, HEK293T + hSort
Method: as §1

Going from B1 to B3, the Kd falls from 0.691 nM to 0.377 nM (1.8-fold). The second binds more tightly here.

B4 and B6 are the same in Kd: 5.25 nM for the first, 5.25 nM for the second.

Compared with B7, B8 is 2.5-fold higher in Kd: 1.08 nM for the first, 2.65 nM for the second.

B9 was tested, and the Kd was 0.81 nM.

target: T2, biotinylated human Sortilin monomer; assay: MSD-SET, Fab
Method: (§6) Antibodies (20 nM in PBS) were coated onto standard bind MSD-ECL plates overnight at 4° C. or at room temperature for 30 min. Plates were then blocked with 1% BSA for 30 min with shaking at 700 rpm, followed by three washes with wash buffer (PB SF+0.05% Tween 20). SET samples were applied and incubated on the plates for 150 s with shaking at 700 rpm followed by one wash. Antigen captured on a plate was detected with 250 ng/ml sulfotag-labeled streptavidin in PBSF by incubation on the plate for 3 min. The plates were washed three times with wash buffer and then read on the MSD Sector Imager 2400 instrument using 1× Read Buffer T with surfactant. The percent free antigen was plotted as a function of titrated antibody in Prism and fit to a quadratic equation to extract the KD. To improve throughput, liquid handling robots were used throughout MSD-SET experiments, including SET sample preparation.

Binder B12 has a Kd of 0.011 nM.

target: T3, biotinylated mouse Sortilin monomer; assay: MSD-SET, Fab
Method: as §6

Going from B13 to B14, the Kd falls from 0.79 nM to 0.07 nM (11-fold). The second binds more tightly here.

B21: no binding.
B22: no binding.
